Experimental findings from PMC6292215 (Cell reports, 2018) are described below.

This test addresses T1, full-length Human recombinant CHERP with an N-terminal HIS (human, UniProt Q8IWX8 1-916).
T1 sequence: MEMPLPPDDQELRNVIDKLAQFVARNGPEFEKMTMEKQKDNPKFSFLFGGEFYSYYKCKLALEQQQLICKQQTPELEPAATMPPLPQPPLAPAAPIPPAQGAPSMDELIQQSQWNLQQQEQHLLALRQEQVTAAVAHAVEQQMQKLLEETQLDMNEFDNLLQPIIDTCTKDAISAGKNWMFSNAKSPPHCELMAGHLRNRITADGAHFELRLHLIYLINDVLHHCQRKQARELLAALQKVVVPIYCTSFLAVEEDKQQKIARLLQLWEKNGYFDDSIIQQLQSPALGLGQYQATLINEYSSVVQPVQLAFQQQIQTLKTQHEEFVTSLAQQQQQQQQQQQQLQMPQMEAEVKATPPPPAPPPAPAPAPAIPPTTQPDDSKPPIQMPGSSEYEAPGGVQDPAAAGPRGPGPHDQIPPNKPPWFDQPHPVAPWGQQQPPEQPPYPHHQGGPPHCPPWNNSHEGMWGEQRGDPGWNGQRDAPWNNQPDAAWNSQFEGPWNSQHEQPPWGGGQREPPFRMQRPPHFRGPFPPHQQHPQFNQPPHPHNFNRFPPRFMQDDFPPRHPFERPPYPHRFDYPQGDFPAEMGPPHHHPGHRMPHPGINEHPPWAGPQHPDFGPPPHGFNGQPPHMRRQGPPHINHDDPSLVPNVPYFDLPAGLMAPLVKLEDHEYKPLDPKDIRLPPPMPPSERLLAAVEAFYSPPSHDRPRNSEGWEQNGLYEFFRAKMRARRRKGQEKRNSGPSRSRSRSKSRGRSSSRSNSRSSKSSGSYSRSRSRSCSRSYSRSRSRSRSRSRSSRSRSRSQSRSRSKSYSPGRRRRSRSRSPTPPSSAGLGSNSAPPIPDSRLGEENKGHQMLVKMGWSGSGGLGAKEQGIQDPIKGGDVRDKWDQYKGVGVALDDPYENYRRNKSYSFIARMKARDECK
Briefly: pull-down.

B1: Full-length Human RBM17 recombinant protein with an N-terminal GST tag (natural protein)
chain: MSLYDDLGVETSDSKTEGWSKNFKLLQSQLQVKKAALTQAKSQRTKQSTVLAPVIDLKRGGSSDDRQIVDTPPHVAAGLKDPVPSGFSAGEVLIPLADEYDPMFPNDYEKVVKRQREERQRQRELERQKEIEEREKRRKDRHEASGFARRPDPDSDEDEDYERERRKRSMGGAAIAPPTSLVEKDKELPRDFPYEEDSRPRSQSSKAAIPPPVYEEQDRPRSPTGPSNSFLANMGGTVAHKIMQKYGFREGQGLGKHEQGLSTALSVEKTSKRGGKIIVGDATEKDASKKSDSNPLTEILKCPTKVVLLRNMVGAGEVDEDLEVETKEECEKYGKVGKCVIFEIPGAPDDEAVRIFLEFERVESAIKAVVDLNGRYFGGRVVKACFYNLDKFRVLDLAEQV
For the molecule B1, the binding result is reported as “binds”.
